The results in this text go back to patent US20260234247A1 (published 2026).

Assay [1] has as its target T1, human LILRB2 expressed on CHOK1 cells (human, UniProt Q8N423 22-597).
T1 construct: whole, on cells; also called CHOK1-hLILRB2; CHOK1-LILRB2
Kind of assay: flow cytometry (FACS) binding to CHOK1-hLILRB2 cells. Background: Flow cytometry measures light scatter and fluorescence of single cells or particles in a stream.

The target in assay [2] is T2, human LILRB1 expressed on CHOK1 cells (human, UniProt Q8NHL6 24-650).
T2 construct: whole, on cells; also called CHOK1-hLILRB1; CHOK1-LILRB1
Kind of assay: cell based RBA on CHOK1-hLILRB1 cells, flow cytometry; competitor HLA-G.

The target in assay [3] is T2, human LILRB1 expressed on CHOK1 cells. Description: flow cytometry (FACS) binding to CHOK1-hLILRB1 cells.
Assay [4] addresses T1, human LILRB2 expressed on CHOK1 cells. Description: cell based RBA on CHOK1-hLILRB2 cells, flow cytometry; competitor HLA-G.
For the next assay, the target named is T3, human LILRA2-his (human, UniProt Q8N149 24-449, limits assumed).
T3 construct: Analyte of the Biacore run; not shown: His tag
Kind of assay: SPR (Biacore 8K), antibody captured via Fc, LILRA2-his as analyte, 1:1 model. A general note: Surface plasmon resonance follows binding to a sensor surface in real time, without labels.

A further assay deals with T4, human LILRB1-his (human, UniProt Q8NHL6 24-458, limits assumed).
T4 construct: Analyte of the Biacore run; not shown: His tag
Kind of assay: SPR (Biacore 8K), antibody captured via Fc, LILRB1-his as analyte, 1:1 model.

In assay [5] the target is T5, Rhesus LILRB1 (F7H3G7) on CHOK1 cells (rhesus macaque).
T5 construct: whole, on cells; also called CHOK1-Rhesus LILRB1 (F7H3G7)
Description: flow cytometry on CHOK1-rhesus LILRB1 (F7H3G7) cells.

Where a chain is given by its changes, count along the chain named.

By EC50 is commonly meant the concentration at which the effect is half-maximal. A high value points to lower potency in that assay. In general, Kd refers to the equilibrium constant for the complex coming apart. Low values mean a tighter complex, high ones a looser complex. As usually defined, the koff is the first-order rate constant of dissociation. A low value points to slow dissociation. As a reminder, the kon is the rate constant with which the complex forms. Higher therefore signals faster complex formation.

T1 sequence (Q8N423 22-597): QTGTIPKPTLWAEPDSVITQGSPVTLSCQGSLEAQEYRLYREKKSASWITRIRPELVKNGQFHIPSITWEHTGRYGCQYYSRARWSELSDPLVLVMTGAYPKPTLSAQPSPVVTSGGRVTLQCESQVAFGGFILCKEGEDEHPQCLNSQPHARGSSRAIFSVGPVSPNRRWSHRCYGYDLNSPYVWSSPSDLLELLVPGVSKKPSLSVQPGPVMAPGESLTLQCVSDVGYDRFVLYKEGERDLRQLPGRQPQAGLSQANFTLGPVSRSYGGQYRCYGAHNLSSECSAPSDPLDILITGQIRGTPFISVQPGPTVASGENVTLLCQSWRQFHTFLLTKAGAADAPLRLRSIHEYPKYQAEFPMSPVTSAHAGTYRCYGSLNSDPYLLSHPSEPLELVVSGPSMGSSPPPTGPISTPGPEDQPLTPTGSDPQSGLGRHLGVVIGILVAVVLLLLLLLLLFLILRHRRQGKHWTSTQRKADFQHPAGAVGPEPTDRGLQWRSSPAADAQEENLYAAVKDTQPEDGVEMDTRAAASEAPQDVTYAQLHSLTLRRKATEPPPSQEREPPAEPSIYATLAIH
T3 sequence (Q8N149 24-449 limits assumed): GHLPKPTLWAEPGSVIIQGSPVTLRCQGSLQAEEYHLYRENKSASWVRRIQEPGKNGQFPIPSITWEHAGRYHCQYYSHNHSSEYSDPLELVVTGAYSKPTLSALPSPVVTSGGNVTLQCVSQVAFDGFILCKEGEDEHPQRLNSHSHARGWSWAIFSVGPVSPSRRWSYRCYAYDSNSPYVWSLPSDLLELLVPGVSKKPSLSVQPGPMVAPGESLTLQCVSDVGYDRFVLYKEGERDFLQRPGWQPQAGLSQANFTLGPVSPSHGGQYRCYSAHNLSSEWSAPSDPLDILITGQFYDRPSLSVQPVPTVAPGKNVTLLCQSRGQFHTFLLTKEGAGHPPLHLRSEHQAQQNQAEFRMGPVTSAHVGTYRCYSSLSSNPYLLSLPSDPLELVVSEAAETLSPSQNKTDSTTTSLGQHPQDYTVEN
Description for human LILRA2-his: (§1) For affinity ranking, antibodies were captured on the sensor chip through Fc capture method. LILRB1-his, LILRB2-his or LILRA2-his was used as the analyte. The surface was regenerated before the injection of another antibody. The process was repeated until all antibodies were analyzed. The off-rates were obtained from fitting the experimental data locally to 1:1 interaction model using the Biacore 8K evaluation software. The data of dissociation (kd) and association (ka) rate constants were obtained using Biacore 8K evaluation software. The equilibrium dissociation constants (KD) were calculated from the ratio of kd over ka. The antibodies were ranked by their dissociation rate constant kd.
Description for human LILRB1-his: as §1

B1: LK-RBi-01 (bispecific antibody, human IgG4 S228P, kappa)
heavy: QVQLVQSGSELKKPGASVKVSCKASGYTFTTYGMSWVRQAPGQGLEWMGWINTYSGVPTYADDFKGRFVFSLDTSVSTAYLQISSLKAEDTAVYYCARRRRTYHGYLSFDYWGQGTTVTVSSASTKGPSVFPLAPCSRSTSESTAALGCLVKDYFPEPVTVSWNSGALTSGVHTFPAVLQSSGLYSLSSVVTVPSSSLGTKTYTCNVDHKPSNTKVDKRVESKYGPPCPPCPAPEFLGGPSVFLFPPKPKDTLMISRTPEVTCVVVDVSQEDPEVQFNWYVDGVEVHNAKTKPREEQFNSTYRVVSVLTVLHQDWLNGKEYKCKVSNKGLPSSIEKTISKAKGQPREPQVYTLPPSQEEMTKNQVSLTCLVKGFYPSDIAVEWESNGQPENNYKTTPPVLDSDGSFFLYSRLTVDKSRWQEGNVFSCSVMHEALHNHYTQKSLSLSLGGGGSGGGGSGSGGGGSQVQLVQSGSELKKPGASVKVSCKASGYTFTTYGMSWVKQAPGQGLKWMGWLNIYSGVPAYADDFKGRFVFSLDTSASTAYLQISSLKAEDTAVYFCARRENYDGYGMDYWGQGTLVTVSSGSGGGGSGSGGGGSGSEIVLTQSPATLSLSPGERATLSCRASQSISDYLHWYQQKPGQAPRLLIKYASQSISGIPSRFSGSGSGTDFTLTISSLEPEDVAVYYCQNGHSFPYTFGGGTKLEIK
light: DIQMTQSPSSLSASVGDRVTITCETSENIYGALNWYQQKPGKAPKLLIYGATNLAEGVPSRFSGSGSGTDFTFTISSLQPEDIATYYCQNVLNTPWTFGGGTKLEIKRTVAAPSVFIFPPSDEQLKSGTASVVCLLNNFYPREAKVQWKVDNALQSGNSQESVTEQDSKDSTYSLSSTLTLSKADYEKHKVYACEVTHQGLSSPVTKSFNRGEC
Regarding B1, the 50% effective concentration (EC50) was 0.8 nM in assay [1], 1.4 µg/mL in assay [2], 7.15 nM in assay [3] and 0.38 µg/mL in assay [4].

B2: LK-RBi-02 (bispecific antibody, human IgG4 S228P, kappa)
heavy: not shown
light: B1 light
Consider B2, for which the 50% effective concentration (EC50) in assay [1] was found to be 1.25 nM; in assay [2] it was 2.12 µg/mL; in assay [3] it was 1.27 nM; in assay [4] it was 0.19 µg/mL.

B3: LK-RBi-09 (bispecific antibody, human IgG4 S228P, kappa)
heavy: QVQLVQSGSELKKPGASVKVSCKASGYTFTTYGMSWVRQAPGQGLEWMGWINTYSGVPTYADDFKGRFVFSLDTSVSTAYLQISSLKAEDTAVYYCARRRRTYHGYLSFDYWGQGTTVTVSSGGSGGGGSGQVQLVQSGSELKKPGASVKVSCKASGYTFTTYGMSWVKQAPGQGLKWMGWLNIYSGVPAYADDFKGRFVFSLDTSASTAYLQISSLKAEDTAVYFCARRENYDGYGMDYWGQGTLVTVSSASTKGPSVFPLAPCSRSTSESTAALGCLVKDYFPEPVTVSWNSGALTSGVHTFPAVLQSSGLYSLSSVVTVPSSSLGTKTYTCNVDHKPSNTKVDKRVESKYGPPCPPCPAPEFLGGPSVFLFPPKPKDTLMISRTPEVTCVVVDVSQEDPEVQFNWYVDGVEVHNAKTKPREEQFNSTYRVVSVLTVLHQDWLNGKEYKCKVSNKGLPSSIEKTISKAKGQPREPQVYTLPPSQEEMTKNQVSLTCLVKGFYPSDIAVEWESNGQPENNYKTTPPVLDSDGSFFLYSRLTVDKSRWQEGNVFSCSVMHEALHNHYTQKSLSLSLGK
light: DIQMTQSPSSLSASVGDRVTITCETSENIYGALNWYQQKPGKAPKLLIYGATNLAEGVPSRFSGSGSGTDFTFTISSLQPEDIATYYCQNVLNTPWTFGGGTKLEIKGGSGGGGSGEIVLTQSPATLSLSPGERATLSCRASQSISDYLHWYQQKPGQAPRLLIKYASQSISGIPSRFSGSGSGTDFTLTISSLEPEDVAVYYCQNGHSFPYTFGGGTKLEIKRTVAAPSVFIFPPSDEQLKSGTASVVCLLNNFYPREAKVQWKVDNALQSGNSQESVTEQDSKDSTYSLSSTLTLSKADYEKHKVYACEVTHQGLSSPVTKSFNRGEC
With B3, the 50% effective concentration (EC50) came out at 1.29 nM in assay [1], 1.03 µg/mL in assay [2], 1.17 nM in assay [3] and 0.43 µg/mL in assay [4].

B4: LK-RB1-9.h2 (antibody, human IgG4, kappa, V domains shown)
VH: QVQLVQSGSELKKPGASVKVSCTASGYTFTTYGMSWVRQAPGQGLKWMGWINTYSGVPTYADDFKGRFVFSLDTSVSTAYLQISSLKAEDTAVYFCARRRRTYHGYLSFDYWGQGTTVTVSS
VL: DIQMTQSPSSLSASVGDRVTITCETSENIYGALNWYQQKPGKAPKLLIYGATNLAEGVPSRFSGSGSGTDYTFTISSLQPEDIATYYCQNVLNTPWTFGGGTKLEIKR
notes: Humanized form of LK-RB1-9
In the assay with human LILRA2-his, B4 displayed a Kd of 6.97 nM, a koff of 0.00132 s⁻¹ and an on-rate (kon) of 189000 M⁻¹ s⁻¹. In the assay with human LILRB1-his, this molecule showed a Kd of 0.927 nM, a koff of 0.000224 s⁻¹ and an on-rate (kon) of 241000 M⁻¹ s⁻¹.

B5: LK-RB1-9.h3 (antibody, human IgG4, kappa, V domains shown)
VH: B4 VH with R38K
VL: B4 VL
notes: Humanized form of LK-RB1-9
Consider B5, for which, in the assay with human LILRA2-his, binding was characterised by a dissociation constant (Kd) of 6.77 nM, the dissociation rate constant (koff) turned out to be 0.00126 s⁻¹ and the kon was found to be 186000 M⁻¹ s⁻¹. In the assay with human LILRB1-his, this molecule came in with an equilibrium dissociation constant (Kd) of 0.497 nM, an off-rate constant (koff) of 0.000115 s⁻¹ and a kon of 232000 M⁻¹ s⁻¹.

B6: LK-RB1-9.h1 (antibody, human IgG4, kappa, V domains shown)
VH: B4 VH with T23K, K46E, F95Y
VL: B4 VL with Y71F
notes: Humanized form of LK-RB1-9
Regarding B6, in the assay with human LILRA2-his, the dissociation constant Kd turned out to be 10.4 nM, the koff amounted to 0.00219 s⁻¹ and the kon worked out at 210000 M⁻¹ s⁻¹. In the assay with human LILRB1-his, binding was put at a Kd of 0.825 nM, the dissociation rate constant (koff) came to 0.000209 s⁻¹ and the kon was determined as 253000 M⁻¹ s⁻¹.

B7: LK-RB1-50 (antibody, human IgG4 S228P, kappa, V domains shown)
VH: QVQLKQSGPGLVQPSQSLSITCTVSGFSLTSYGVHWVRQSPGKGLEWLGVIWRGGNTDYNAPFVSRLSITKDNSQSQVFFKMNSLEADDTAIYYCAKNSLDVYSSWYFDVWGTGTTVTVSS
VL: QIVLSQSPAILSAFPGEKVTMTCRASSSVSFMHWYQQKPGSSPKPWIYATSNLASGVPARFSGSGSGTSYSLTISRVEAEDAATYYCQQWSSNPLTFGAGTKLELKR
notes: Anti-LILRB1 antibody
B7 yielded an EC50 in assay [5] of 19900 nM.

B8: LK-RBi-11 (bispecific antibody, human IgG4 S228P, kappa)
heavy: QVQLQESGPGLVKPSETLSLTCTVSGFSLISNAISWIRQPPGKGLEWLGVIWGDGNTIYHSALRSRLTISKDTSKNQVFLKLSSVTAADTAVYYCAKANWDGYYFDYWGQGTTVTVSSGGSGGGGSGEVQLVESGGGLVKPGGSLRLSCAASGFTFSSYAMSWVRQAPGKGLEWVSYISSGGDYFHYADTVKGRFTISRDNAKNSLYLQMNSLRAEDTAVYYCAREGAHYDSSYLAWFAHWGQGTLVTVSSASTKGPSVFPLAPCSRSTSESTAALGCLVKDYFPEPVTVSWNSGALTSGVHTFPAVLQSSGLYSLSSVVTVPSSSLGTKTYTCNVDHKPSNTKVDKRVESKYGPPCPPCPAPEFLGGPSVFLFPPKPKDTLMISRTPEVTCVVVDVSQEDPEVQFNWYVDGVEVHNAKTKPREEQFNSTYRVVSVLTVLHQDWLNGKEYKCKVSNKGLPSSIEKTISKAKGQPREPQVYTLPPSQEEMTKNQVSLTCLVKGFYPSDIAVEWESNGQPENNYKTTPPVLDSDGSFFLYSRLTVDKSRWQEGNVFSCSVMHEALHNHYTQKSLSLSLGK
light: DIQMTQSPSTLSASVGDRVTITCHASQSVDFWLNWYQQKPGKAPKLLISKASNLHTGVPSRFSGSGSGTEFTLTISSLQPDDFATYYCQQGQSYPLTFGQGTKLEIKGGSGGGGSGDIQMTQSPSSVSASVGDRVTITCRASENIYSNLAWYQQKPGKAPKLLIYAATNLAEGVPSRFSGSGSGTDYTLTISSLQPEDFATYYCQQFWDNPLTFGQGTKLEIKRTVAAPSVFIFPPSDEQLKSGTASVVCLLNNFYPREAKVQWKVDNALQSGNSQESVTEQDSKDSTYSLSSTLTLSKADYEKHKVYACEVTHQGLSSPVTKSFNRGEC
Consider B8, for which the concentration giving a half-maximal response (EC50) in assay [1] was found to be 2.22 nM; in assay [2] it was 4.37 µg/mL; in assay [3] it was 2.31 nM; in assay [4] it was 2.49 µg/mL.

B9: 15G8 (antibody, human IgG4 S228P, kappa, V domains shown)
VH: DVQLQGSGPGLVKPSETLSLTCSVTGYSITSGYYWNWIRQFPGKKLEWMGYISYDGSNNYNPSLKNRITISRDTSKNQFSLKLNSVTAADTATYYCAHGYSYYYAMDAWGQGTSVTVSS
VL: DIQMTQSPSSLSASVGDRVTITCRTSQDISNYLNWYQQKPGKAVKLLISYTSRLHSGVPSRFSGSGSGTDYTLTISSLQPEDFATYYCQQGNTLPTFGQGTKLEIKR
Consider B9, for which, in assay [1], the binding result is “no binding”. Further, the figures for the half-maximal effective concentration (EC50) in assay [2] and in assay [3] were 2.05 µg/mL and 1.17 nM, respectively.

B10: LK-RBi-10 (bispecific antibody, human IgG4 S228P, kappa)
heavy: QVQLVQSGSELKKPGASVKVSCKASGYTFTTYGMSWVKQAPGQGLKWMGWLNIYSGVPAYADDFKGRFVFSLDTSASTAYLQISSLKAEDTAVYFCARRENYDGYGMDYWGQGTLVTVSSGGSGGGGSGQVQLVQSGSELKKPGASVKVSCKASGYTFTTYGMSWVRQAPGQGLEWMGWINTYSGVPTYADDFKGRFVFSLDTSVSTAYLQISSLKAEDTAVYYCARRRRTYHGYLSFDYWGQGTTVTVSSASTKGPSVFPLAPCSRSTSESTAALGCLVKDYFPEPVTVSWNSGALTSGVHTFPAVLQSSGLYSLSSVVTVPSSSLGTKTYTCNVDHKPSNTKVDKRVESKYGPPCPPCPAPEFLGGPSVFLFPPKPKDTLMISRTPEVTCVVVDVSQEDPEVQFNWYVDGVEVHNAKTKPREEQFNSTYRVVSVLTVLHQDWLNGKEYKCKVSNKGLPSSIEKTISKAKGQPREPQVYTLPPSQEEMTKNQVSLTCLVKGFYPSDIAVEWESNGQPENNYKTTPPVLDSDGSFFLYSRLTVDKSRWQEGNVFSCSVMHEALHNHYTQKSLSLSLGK
light: EIVLTQSPATLSLSPGERATLSCRASQSISDYLHWYQQKPGQAPRLLIKYASQSISGIPSRFSGSGSGTDFTLTISSLEPEDVAVYYCQNGHSFPYTFGGGTKLEIKGGSGGGGSGDIQMTQSPSSLSASVGDRVTITCETSENIYGALNWYQQKPGKAPKLLIYGATNLAEGVPSRFSGSGSGTDFTFTISSLQPEDIATYYCQNVLNTPWTFGGGTKLEIKRTVAAPSVFIFPPSDEQLKSGTASVVCLLNNFYPREAKVQWKVDNALQSGNSQESVTEQDSKDSTYSLSSTLTLSKADYEKHKVYACEVTHQGLSSPVTKSFNRGEC
With B10, the EC50 worked out at 1.06 nM in assay [1], 0.91 µg/mL in assay [2], 2.21 nM in assay [3] and 0.5 µg/mL in assay [4].

B11: LK-RBi-06 (bispecific antibody, human IgG4 S228P, kappa)
heavy: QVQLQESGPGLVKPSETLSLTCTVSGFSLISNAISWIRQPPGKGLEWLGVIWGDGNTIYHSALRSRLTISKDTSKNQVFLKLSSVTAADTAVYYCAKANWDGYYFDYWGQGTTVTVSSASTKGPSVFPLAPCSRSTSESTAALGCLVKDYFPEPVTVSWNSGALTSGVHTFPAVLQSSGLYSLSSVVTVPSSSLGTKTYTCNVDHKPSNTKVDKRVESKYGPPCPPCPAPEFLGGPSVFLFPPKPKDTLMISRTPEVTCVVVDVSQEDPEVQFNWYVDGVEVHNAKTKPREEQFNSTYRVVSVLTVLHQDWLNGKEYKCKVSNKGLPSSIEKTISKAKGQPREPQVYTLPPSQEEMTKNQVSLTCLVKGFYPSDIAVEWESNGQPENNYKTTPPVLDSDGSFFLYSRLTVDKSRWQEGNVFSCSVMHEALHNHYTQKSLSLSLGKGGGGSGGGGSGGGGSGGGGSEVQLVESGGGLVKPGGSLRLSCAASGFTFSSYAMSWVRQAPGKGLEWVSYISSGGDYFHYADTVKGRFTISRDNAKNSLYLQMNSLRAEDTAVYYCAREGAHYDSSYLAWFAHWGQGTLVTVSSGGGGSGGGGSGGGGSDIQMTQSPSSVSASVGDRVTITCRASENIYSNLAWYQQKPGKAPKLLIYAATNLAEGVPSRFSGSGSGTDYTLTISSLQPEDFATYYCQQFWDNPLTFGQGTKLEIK
light: DIQMTQSPSTLSASVGDRVTITCHASQSVDFWLNWYQQKPGKAPKLLISKASNLHTGVPSRFSGSGSGTEFTLTISSLQPDDFATYYCQQGQSYPLTFGQGTKLEIKRTVAAPSVFIFPPSDEQLKSGTASVVCLLNNFYPREAKVQWKVDNALQSGNSQESVTEQDSKDSTYSLSSTLTLSKADYEKHKVYACEVTHQGLSSPVTKSFNRGEC
With B11, the EC50 in assay [1] was 0.73 nM; in assay [2] it was 1.31 µg/mL; in assay [3], 1.47 nM; in assay [4], 0.57 µg/mL.

B12: LK-RBi-07 (bispecific antibody, human IgG4 S228P, kappa)
heavy: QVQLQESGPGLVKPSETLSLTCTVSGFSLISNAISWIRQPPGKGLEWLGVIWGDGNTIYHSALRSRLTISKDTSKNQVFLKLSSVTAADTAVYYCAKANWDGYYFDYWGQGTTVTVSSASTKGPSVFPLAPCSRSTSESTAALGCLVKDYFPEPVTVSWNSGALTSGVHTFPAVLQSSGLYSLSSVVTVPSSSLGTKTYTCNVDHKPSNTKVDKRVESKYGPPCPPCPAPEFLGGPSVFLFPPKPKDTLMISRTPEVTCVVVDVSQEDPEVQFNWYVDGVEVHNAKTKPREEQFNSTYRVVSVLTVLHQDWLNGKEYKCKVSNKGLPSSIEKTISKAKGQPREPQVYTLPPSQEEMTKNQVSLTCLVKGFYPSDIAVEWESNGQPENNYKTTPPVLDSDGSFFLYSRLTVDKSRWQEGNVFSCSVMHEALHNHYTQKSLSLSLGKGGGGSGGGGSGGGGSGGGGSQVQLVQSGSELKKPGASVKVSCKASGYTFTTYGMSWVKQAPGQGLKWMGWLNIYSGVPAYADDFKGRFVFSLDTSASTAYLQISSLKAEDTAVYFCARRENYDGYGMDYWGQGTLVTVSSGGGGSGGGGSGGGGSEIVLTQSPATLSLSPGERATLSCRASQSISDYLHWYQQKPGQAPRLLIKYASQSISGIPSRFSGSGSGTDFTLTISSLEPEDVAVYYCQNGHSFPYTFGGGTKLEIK
light: B11 light
B12: the EC50 in assay [1] amounted to 1.58 nM; in assay [2], 1.22 µg/mL; in assay [3], 2.51 nM; in assay [4], 0.97 µg/mL.

B13: J19.h1 (antibody, human IgG4 S228P, kappa, V domains shown)
VH: QITLKESGPTLVKPTQTLTLTCTFSGFSLNTYAMGVSWIRQPPGKALEWLASIWWNGNKYNNPSLKSRLTVTKDTSKNQVVLTMTNMDPVDTATYYCAHSRIIRFTDYVMDAWGQGTLVTVSS
VL: DIQMTQSPSSLSTSVGDRVTITCRASEDIYNDLAWYQQKPGKAPKLLIYNANSLHTGVASRFSGSGSGTDFTFTISSLQPEDVATYFCQQYYDYPLTFGQGTKLEIKR
For B13, the EC50 in assay [1] amounted to 0.27 nM; in assay [4], 0.46 µg/mL. Also, the binding result in assay [3] was “no binding”.

B14: hz73D1.v1 (antibody, human IgG4 S228P, kappa, V domains shown)
VH: QVQLVQSGAEVKKPGASVKVSCKASGYTFTDYYINWVRQAPGQGLEWMGNVNPNDGGTTYNQKFKGRVTMTTDTSTSTAYMELRSLRSDDTAVYYCARREIYFYGTIYYYAMDYWGQGTLVTVSS
VL: DIQLTQSPSFLSASVGDRVTITCRASESVDYYGNSFMYWYQQKPGKAPKLLIYFASNLESGVPSRFSGSGSGTEFTLTISSLQPEDFATYYCQQNNEDPWTFGGGTKVEIKR
For B14, the EC50 was 1.4 nM in assay [1], 7.26 µg/mL in assay [2], 5.37 nM in assay [3] and 1.46 µg/mL in assay [4].

B15: LK-RB1-11 (antibody, human IgG4 S228P, kappa, V domains shown)
VH: QVTLKESGPGILQPSQTLSLTCSFSGFSLKTSGMSVGWIRQPSGKGLEWLAHIWWNDDKYYNPVLKGRLTISKDTSNNLVFLKIASVVSTDTATYYCVRYGNSHGYWYFDVWGTGTTVTVSS
VL: NIVLTQSPASLAVSLGQRATISCRASESVDSYGNNFIHWYQQKPGQPPKVLIYYASNLEAGVPARFSGSGSRTDFTLTIDPVEAEDAATYYCQQNNEDPYTFGGGTKLEIER
notes: Anti-LILRB1 antibody
Regarding B15, the EC50 in assay [5] was determined as 0.78 nM.

B16: LK-RB1-9 (antibody, human IgG4 S228P, kappa, V domains shown)
VH: QIQLVQSGPELKKPGETVKISCTASGYTFTTYGMSWVKQAPGKGLKWMGWINTYSGVPTYADDFKGRFAFSLETSASTAYLEINNVKNEDTATYFCARRRRTYHGYLCFDYWGQGTTLTVSS
VL: DIQMTQSPVSLSASVGETVTITCETSENIYGALNWYQRKQGKSPQLLIYGATNLADGMSSRFSGSGSGRQYSLEISSLHPDDVASYYCQNVLNTPWTFGGGTKLEIKR
notes: Anti-LILRB1 antibody from mouse hybridoma; parental antibody of LK-RB1-9.h1 to h3
In the assay with human LILRA2-his, B16 yielded a dissociation constant Kd of 13.3 nM, a koff of 0.00286 s⁻¹ and an on-rate constant (kon) of 215000 M⁻¹ s⁻¹. In the assay with human LILRB1-his, binding was put at a Kd of 0.836 nM, the koff stood at 0.000255 s⁻¹ and the kon was 305000 M⁻¹ s⁻¹.
